{
  "source": "patent US20140162285A1",
  "about": "“Methods of Modulating Vesicular Trafficking” (The General Hospital Corporation, priority 2009, published 2014)",
  "key": {"[1]": {"molecular_target": "T1, PB-domain of ARNO (Homo sapiens, UniProt Q99418)", "T1 construct": "v) 379-400aa, polybasic (PB) domain; made in house; host or cells: E. coli BL21(DE3)", "test": "a2N-derived peptide pull-down with GST-PB domain", "format": "binding", "description": "(§1) FIGS. 5A-C are a set of three images of Western blots showing the identification of interaction motif of a2N that is involved in specific binding with the Sec7 domain of ARNO. 5A, The catalytic Sec7 domain of ARNO interacts with two a2N-derived peptides, a2N-01 and a2N-03, in pull-down experiments. The peptide pull-down assay was performed with six a2N-derived interaction peptides immobilized on streptavidin-beads and incubated with purified recombinant GST-only or GST-Sec7 domain. Interacting complexes were eluted and analyzed by Western blotting using monoclonal anti-GST antibodies as described below. The loading controls for GST-only (lane 1) or GST-Sec7 (lane 2) are shown. […] The peptide pull-down assay was performed with peptides a2N-01 and a2N-03 immobilized on streptavidin-beads and incubated with purified recombinant GST-PH domain (5B) or GST-PB domain (5C). Interacting complexes were eluted and analyzed by Western blotting using monoclonal anti-GST antibodies. […]\n(§2) These a2N-derived peptides were immobilized by an N-terminal biotin-tag, which ensured the same efficiency and equivalent binding to streptavidin-agarose beads. […] After washing beads four times in ice-cold binding buffer, the interacting complexes were eluted by boiling in SDS-PAGE sample buffer for 10 min at 95° C., resolved by SDS-PAGE and analyzed by Western blotting using monoclonal anti-GST antibody. […]"}, "[2]": {"molecular_target": "T2, PH-domain of ARNO (Homo sapiens, UniProt Q99418)", "T2 construct": "iv) 253-378aa, plekstrin-homology (PH) domain; made in house; host or cells: E. coli BL21(DE3)", "T2 sequence (Q99418 253-378)": "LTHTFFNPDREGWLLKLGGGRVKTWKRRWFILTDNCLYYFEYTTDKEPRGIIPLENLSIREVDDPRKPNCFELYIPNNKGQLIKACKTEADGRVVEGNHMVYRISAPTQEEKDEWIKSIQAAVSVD", "test": "a2N-derived peptide pull-down with GST-PH domain", "format": "binding", "description": "as §1, §2"}, "[3]": {"molecular_target": "T3, GST-ARNO(wt) (Homo sapiens, UniProt Q99418)", "T3 construct": "i) 1-400aa, full length ARNO(wt); made in house; host or cells: E. coli BL21(DE3)", "T3 sequence (Q99418 1-400)": "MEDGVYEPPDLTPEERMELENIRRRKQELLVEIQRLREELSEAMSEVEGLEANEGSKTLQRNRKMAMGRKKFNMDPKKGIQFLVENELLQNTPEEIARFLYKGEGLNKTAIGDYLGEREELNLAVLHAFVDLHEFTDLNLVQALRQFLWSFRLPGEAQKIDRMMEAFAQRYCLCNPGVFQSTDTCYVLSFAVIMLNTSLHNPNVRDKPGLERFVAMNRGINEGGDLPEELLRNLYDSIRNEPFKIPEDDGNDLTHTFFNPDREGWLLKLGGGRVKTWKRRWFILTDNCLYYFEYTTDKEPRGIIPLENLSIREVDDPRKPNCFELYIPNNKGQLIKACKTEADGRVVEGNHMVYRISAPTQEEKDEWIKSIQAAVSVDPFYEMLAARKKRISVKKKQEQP", "test": "a2N-derived peptide pull-down assay with GST-ARNO(wt)", "format": "binding", "parameters": "key to interaction with ARNO (asterisk mark in Table 1): The interacting peptides are indicated in bold with an asterisk (*)", "description": "FIG. 2A is an image of a Western blot showing the results of an a2N-derived peptide pull-down assay. The indicated a2N-derived peptides were immobilized on streptavidin-beads and incubated with purified recombinant GST-ARNO(wt). Interacting complexes were eluted and analyzed by Western blotting using monoclonal anti-GST antibodies.\nFIG. 2B is an image of a Western blot showing the results of a pull-down assay with selected a2N-derived interacting peptides incubated with either GST (negative control) or GST-ARNO(wt). The first two lanes show the patterns obtained when either GST-only (lane 1) or GST-ARNO(wt) (lane 2) were loaded onto the gel.\nPeptides were synthesized, purified by HPLC and analyzed by mass spectrometry in the MGH Peptide/Protein Core Facility. All a2N-derived peptides were synthesized with a biotin-tag on the N-terminus for immobilization on streptavidin-agarose beads and with an additional C-terminal cysteine residue for immobilization on beads using sulfhydryl-specific crosslinkers. A peptide corresponding to the PB-domain of ARNO was synthesized containing either a non-phosphorylated or a phosphorylated Ser392 residue. Peptide stock solutions were prepared in DMSO at 5 mM concentration and stored at −20° C. […]"}, "[4]": {"molecular_target": "T4, Sec7-domain of ARNO (Homo sapiens, UniProt Q99418)", "T4 construct": "iii) 61-252aa, Sec7 domain; GST (N, cleaved yes); made in house; host or cells: E. coli BL21(DE3)", "T4 sequence (Q99418 61-252)": "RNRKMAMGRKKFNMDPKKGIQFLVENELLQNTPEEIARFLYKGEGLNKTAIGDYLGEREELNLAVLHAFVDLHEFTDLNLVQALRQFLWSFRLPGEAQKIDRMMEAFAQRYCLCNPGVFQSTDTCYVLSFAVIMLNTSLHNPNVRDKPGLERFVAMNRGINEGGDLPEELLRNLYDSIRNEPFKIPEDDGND", "test": "a2N-derived peptide pull-down with GST-Sec7 domain", "format": "binding", "conditions": "GST-Sec7-6His", "description": "as §1\nThese a2N-derived peptides were immobilized by an N-terminal biotin-tag, which ensured the same efficiency and equivalent binding to streptavidin-agarose beads. […] After washing beads four times in ice-cold binding buffer, the interacting complexes were eluted by boiling in SDS-PAGE sample buffer for 10 min at 95° C., resolved by SDS-PAGE and analyzed by Western blotting using monoclonal anti-GST antibody."}, "[5]": {"molecular_target": "T5, recombinant ARNO (human, UniProt Q99418 1-400, limits assumed)", "T5 sequence (looked up)": "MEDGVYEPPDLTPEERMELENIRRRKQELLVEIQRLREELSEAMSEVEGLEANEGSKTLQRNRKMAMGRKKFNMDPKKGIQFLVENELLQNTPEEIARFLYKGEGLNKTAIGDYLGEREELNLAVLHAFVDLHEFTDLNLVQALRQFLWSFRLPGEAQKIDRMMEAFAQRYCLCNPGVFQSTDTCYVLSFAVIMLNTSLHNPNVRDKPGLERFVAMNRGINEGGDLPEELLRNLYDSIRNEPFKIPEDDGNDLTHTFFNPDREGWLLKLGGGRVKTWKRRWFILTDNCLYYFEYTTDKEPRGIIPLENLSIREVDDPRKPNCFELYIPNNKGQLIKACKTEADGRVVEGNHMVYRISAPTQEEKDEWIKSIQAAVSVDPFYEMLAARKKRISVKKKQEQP", "test": "cell-based or functional assay"}, "[6]": {"molecular_target": "Sec7-6His recombinant protein (human) (UniProt Q99418)", "test": "SPR (BIAcore T100), biotinylated a2N-01 captured on neutravidin, Sec7-6His as analyte, 1:1 fit"}, "[7]": {"molecular_target": "Sec7-6His recombinant protein (human) (UniProt Q99418)", "test": "calculated from the SPR KD (deltaG = RT ln KD)"}, "[8]": {"molecular_target": "T6, GST-only (UniProt P08515 1-218 = GST)", "T6 construct": "Control bait/prey in pull-down assays; also called GST (negative control)", "T6 sequence (P08515 whole entry)": "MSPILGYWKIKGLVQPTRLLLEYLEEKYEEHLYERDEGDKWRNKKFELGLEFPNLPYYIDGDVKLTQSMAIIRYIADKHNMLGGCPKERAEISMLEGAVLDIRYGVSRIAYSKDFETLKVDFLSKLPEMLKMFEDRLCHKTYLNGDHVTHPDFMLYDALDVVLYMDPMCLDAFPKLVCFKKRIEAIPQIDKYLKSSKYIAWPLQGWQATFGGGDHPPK", "test": "peptide pull-down: biotinylated peptide on streptavidin beads, GST-only in solution, Western blot with anti-GST antibody"}},
  "note": "“Also recorded” adds a separate entry of the source. Ends that are not written are not given here. * marks the point of attachment. FITC = O=C1OC2(c3ccc(O)cc3Oc3cc(O)ccc32)c2ccc(NC(=S)*)cc21; Biotin = O=C1N[C@H]2[C@H](CS[C@H]2CCCCC(=O)*)N1; βAla = NCCC(=O)O",
  "data": [
    {"molecule": "Bio-VQFRDLNQNVSSFQR-Cys (VQFRDLNQNVSSFQRC) [a2N-03, AA 35-49 of a2N]", "values": [
      {"measurement": "interaction with PB-domain of ARNO", "setting": "[1]", "value": "interacts equally well"},
      {"measurement": "interaction with PH-domain of ARNO", "setting": "[2]", "value": "interacts equally well"},
      {"measurement": "interaction of a2N-derived peptide with GST-ARNO(wt) in pull-down", "setting": "[3]; Western blot anti-GST, GST-only as control", "value": "specific interaction; also recorded: capable of interaction with ARNO"},
      {"measurement": "interaction with ARNO (asterisk mark in Table 1)", "setting": "[3]; biotin-tagged peptides on streptavidin beads", "value": "Bio-VQFRDLNQNVSSFQR-Cys *"},
      {"measurement": "interaction with Sec7-domain of ARNO", "setting": "[4]", "value": "interacts"}
    ]},
    {"molecule": "{FITC-βAla}-MGSLFRSESMCLAQLFLYGRKKRRQRRR", "note": "[FITC-a2N-01-TAT]", "values": [
      {"measurement": "IC50 of inhibition of ARNO's GEF activity (radiolabel GDP/GTP-exchange assay, 5% PIP2 vesicles)", "setting": "[5]", "value": "~700", "unit": "nM"}
    ]},
    {"molecule": "Biotin-MGSLFRSESMCLAQLFLC (cysteine pairing not given here, Synthetic peptide from the mouse V-ATPase a2-subunit N-terminal tail; Bio- at N-terminus, extra Cys at C-terminus; also called a2N1-17; biotinylated a2N-01 peptide)", "note": "[a2N-01]", "values": [
      {"measurement": "Kd", "setting": "[6]", "value": 344, "unit": "nM"},
      {"measurement": "koff", "setting": "[6]", "value": 0.00086, "unit": "s⁻¹"},
      {"measurement": "kon", "setting": "[6]", "value": 2500, "unit": "M⁻¹ s⁻¹"},
      {"measurement": "free energy of binding", "setting": "[7]", "value": -8.81, "unit": "kcal/mol"},
      {"measurement": "binding result", "setting": "[8]", "value": "no binding"}
    ]}
  ]
}
